Source: IntAct's records for PubMed 18376416

B1: Protein XRP2 (Homo sapiens), O75695 (parent)
chain: MGCFFSKRRKADKESRPENEEERPKQYSWDQREKVDPKDYMFSGLKDETVGRLPGTVAGQQFLIQDCENCNIYIFDHSATVTIDDCTNCIIFLGPVKGSVFFRNCRDCKCTLACQQFRVRDCRKLEVFLCCATQPIIESSSNIKFGCFQWYYPELAFQFKDAGLSIFNNTWSNIHDFTPVSGELNWSLLPEDAVVQDYVPIPTTEELKAVRVSTEANRSIVPISRGQRQKSSDESCLVVLFAGDYTIANARKLIDEMVGKGFFLVQTKEVSMKAEDAQRVFREKAPDFLPLLNKGPVIALEFNGDGAVEVCQLIVNEIFNGTKMFVSESKETASGDVDSFYNFADIQMGI

Variants of: B1
Details: with arl3_mouse Arl3, Q9WUL7
Sequence of arl3_mouse Arl3, Q9WUL7 (Q9WUL7 whole entry): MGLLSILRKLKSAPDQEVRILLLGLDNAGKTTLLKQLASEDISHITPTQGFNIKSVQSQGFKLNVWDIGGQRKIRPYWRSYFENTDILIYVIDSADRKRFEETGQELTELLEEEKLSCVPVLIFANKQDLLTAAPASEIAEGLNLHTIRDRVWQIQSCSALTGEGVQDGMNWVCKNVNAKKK

Effect of a mutation on the interaction, decreasing interaction:
MGCFFSKRRKADKESRPENEEERPKQYAADQREKVDPKDYMFSGLKDETVGRLPGTVAGQQFLIQDCENCNIYIFDHSATVTIDDCTNCIIFLGPVKGSVFFRNCRDCKCTLACQQFRVRDCRKLEVFLCCATQPIIESSSNIKFGCFQWYYPELAFQFKDAGLSIFNNTWSNIHDFTPVSGELNWSLLPEDAVVQDYVPIPTTEELKAVRVSTEANRSIVPISRGQRQKSSDESCLVVLFAGDYTIANARKLIDEMVGKGFFLVQTKEVSMKAEDAQRVFREKAPDFLPLLNKGPVIALEFNGDGAVEVCQLIVNEIFNGTKMFVSESKETASGDVDSFYNFADIQMGI [S28A;W29A]
MGCFFSKRRKADKESRPENEEERPKQYSWDQREKVDPKDYMFSGLKDETVGRLPGTVAGQQFLIQDCENCNIYIFDHSATVTIDDCTNCIIFLGPVKGSVFFRNCRDCKCTLACAQFRVRDCRKLEVFLCCATQPIIESSSNIKFGCFQWYYPELAFQFKDAGLSIFNNTWSNIHDFTPVSGELNWSLLPEDAVVQDYVPIPTTEELKAVRVSTEANRSIVPISRGQRQKSSDESCLVVLFAGDYTIANARKLIDEMVGKGFFLVQTKEVSMKAEDAQRVFREKAPDFLPLLNKGPVIALEFNGDGAVEVCQLIVNEIFNGTKMFVSESKETASGDVDSFYNFADIQMGI [Q115A]
MGCFFSKRRKADKESRPENEEERPKQYSWDQREKVDPKDYMFSGLKDETVGRLPGTVAGQQFLIQDCENCNIYIFDHSATVTIDDCTNCIIFLGPVKGSVFFRNCRDCKCTLACQQFHVRDCRKLEVFLCCATQPIIESSSNIKFGCFQWYYPELAFQFKDAGLSIFNNTWSNIHDFTPVSGELNWSLLPEDAVVQDYVPIPTTEELKAVRVSTEANRSIVPISRGQRQKSSDESCLVVLFAGDYTIANARKLIDEMVGKGFFLVQTKEVSMKAEDAQRVFREKAPDFLPLLNKGPVIALEFNGDGAVEVCQLIVNEIFNGTKMFVSESKETASGDVDSFYNFADIQMGI [R118H]
MGCFFSKRRKADKESRPENEEERPKQYSWDQREKVDPKDYMFSGLKDETVGRLPGTVAGQQFLIQDCENCNIYIFDHSATVTIDDCTNCIIFLGPVKGSVFFRNCRDCKCTLACQQFRVHSCRKLEVFLCCATQPIIESSSNIKFGCFQWYYPELAFQFKDAGLSIFNNTWSNIHDFTPVSGELNWSLLPEDAVVQDYVPIPTTEELKAVRVSTEANRSIVPISRGQRQKSSDESCLVVLFAGDYTIANARKLIDEMVGKGFFLVQTKEVSMKAEDAQRVFREKAPDFLPLLNKGPVIALEFNGDGAVEVCQLIVNEIFNGTKMFVSESKETASGDVDSFYNFADIQMGI [R120H;D121S]

Variants of: B1
Details: with arl3_mouse Arl3, Q9WUL7
Remark: another data set of the same source

Effect of a mutation on the interaction, decreasing interaction:
MGCFFSKRRKADKESRPENEEERPKQYSWDQREKVDPKDYMFSGLKDETVGRLPGTVAGQQFLIQDCENCNIYIFDHSATVTIDDCTNCIIFLGPVKGSVFFRNCRDCKCTLACQAFRVRDCRKLEVFLCCATQPIIESSSNIKFGCFQWYYPELAFQFKDAGLSIFNNTWSNIHDFTPVSGELNWSLLPEDAVVQDYVPIPTTEELKAVRVSTEANRSIVPISRGQRQKSSDESCLVVLFAGDYTIANARKLIDEMVGKGFFLVQTKEVSMKAEDAQRVFREKAPDFLPLLNKGPVIALEFNGDGAVEVCQLIVNEIFNGTKMFVSESKETASGDVDSFYNFADIQMGI [Q116A]
MGCFFSKRRKADKESRPENEEERPKQYSWDQREKVDPKDYMFSGLKDETVGRLPGTVAGQQFLIQDCENCNIYIFDHSATVTIDDCTNCIIFLGPVKGSVFFRNCRDCKCTLACQQFRVRDCRKLEVFLCCATQPIIGSSSNIKFGCFQWYYPELAFQFKDAGLSIFNNTWSNIHDFTPVSGELNWSLLPEDAVVQDYVPIPTTEELKAVRVSTEANRSIVPISRGQRQKSSDESCLVVLFAGDYTIANARKLIDEMVGKGFFLVQTKEVSMKAEDAQRVFREKAPDFLPLLNKGPVIALEFNGDGAVEVCQLIVNEIFNGTKMFVSESKETASGDVDSFYNFADIQMGI [E138G]
MGCFFSKRRKADKESRPENEEERPKQYSWDQREKVDPKDYMFSGLKDETVGRLPGTVAGQQFLIQDCENCNIYIFDHSATVTIDDCTNCIIFLGPVKGSVFFRNCRDCKCTLACQQFRVRDCRKLEVFLCCATQPIIESSSNIKFGCFQWYYPELAFQFKDAGLSIFNNTWSNIHDATPVSGELNWSLLPEDAVVQDYVPIPTTEELKAVRVSTEANRSIVPISRGQRQKSSDESCLVVLFAGDYTIANARKLIDEMVGKGFFLVQTKEVSMKAEDAQRVFREKAPDFLPLLNKGPVIALEFNGDGAVEVCQLIVNEIFNGTKMFVSESKETASGDVDSFYNFADIQMGI [F177A]
MGCFFSKRRKADKESRPENEEERPKQYSWDQREKVDPKDYMFSGLKDETVGRLPGTVAGQQFLIQDCENCNIYIFDHSATVTIDDCTNCIIFLGPVKGSVFFRNCRDCKCTLACQQFAVRDCRKLEVFLCCATQPIIESSSNIKFGCFQWYYPELAFQFKDAGLSIFNNTWSNIHDFTPVSGELNWSLLPEDAVVQDYVPIPTTEELKAVRVSTEANRSIVPISRGQRQKSSDESCLVVLFAGDYTIANARKLIDEMVGKGFFLVQTKEVSMKAEDAQRVFREKAPDFLPLLNKGPVIALEFNGDGAVEVCQLIVNEIFNGTKMFVSESKETASGDVDSFYNFADIQMGI [R118A]
